From patent publication US20100204147A1 (REGENERX BIOPHARMACEUTICALS, published 2010)

Columns and labels:
Assay in all cases: ELISA, immobilized fragment, without factor XIII or with non-activated factor XIII
[1] = molecular target: T1, Recombinant truncated αC-fragment, COOH-terminal half (residues Aα392-610) (human, UniProt P02671 411-629)
T1 construct: probably the mature Aα chain; also called Aα392-610 sub-fragment; Aα392-610 fragment
T1 sequence (looked up): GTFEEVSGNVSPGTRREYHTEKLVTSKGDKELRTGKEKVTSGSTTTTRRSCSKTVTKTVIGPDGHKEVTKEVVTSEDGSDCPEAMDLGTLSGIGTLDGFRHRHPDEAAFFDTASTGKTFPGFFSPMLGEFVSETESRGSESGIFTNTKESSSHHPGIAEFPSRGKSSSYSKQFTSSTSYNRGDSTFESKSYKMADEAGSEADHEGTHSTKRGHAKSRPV
Experimental: (§1) The interaction between thymosin β4 and fibrin(ogen) and its fragments in the presence or absence of FXIIIa was studies by ELISA using plastic microliter plates. Wells of microliter plates were coated overnight at −4° C. with fibrinogen and fibrin at 10 μg/mL or with the recombinant fragments of 20 μg/ml, all in 0.1 M NaHCO₃ buffer, pH 8.3. Fibrin was made by addition to the wells of a mixture containing 10 μg/mL fibrinogen 1 NIH u/ml thrombin and 400 u/ml aprotinin, followed by overnight incubation at +4° C. The wells were then blocked by incubation with Super Blocker (Pierce) at 37° C. for 1 h. Following washing with TBS containing 0.05% Tween-20 (TBS-Tween), the indicated concentrations of thymosin β4, FXIII, FXIIIa(Thr) and FXIIIa(Ca) were added to the wells and incubated for 2-2.5 h at 37° C. Bound (incorporated) thymosin β4 was detected by the reaction with rabbit anti-thymosin β4 serum and peroxidase-conjugated anti-rabbit IgG. A TMB Microwell Peroxidase Substrase was added to the wells, and the incorporated thymosin β4 was measured spectrophotometrically at 450 nm.
(§2) The above observations were confirmed by ELISA. […] It should be noted that the incorporation of the γ-module was almost twice lower than that of the αC-domain variants at all concentration studied. When thymosin β4 was incubated with the same immobilized species in the presence of non-activated factor XIII or without it, the incorporation was very low in all cases.

[2] = molecular target: T2, Recombinant αC-fragment corresponding to the human fibrinogen αC-domain (residues Aα221-610) (human, UniProt P02671 240-629)
T2 construct: By fibrinogen convention they are probably mature Aα chain numbering, without the signal peptide
T2 sequence (looked up): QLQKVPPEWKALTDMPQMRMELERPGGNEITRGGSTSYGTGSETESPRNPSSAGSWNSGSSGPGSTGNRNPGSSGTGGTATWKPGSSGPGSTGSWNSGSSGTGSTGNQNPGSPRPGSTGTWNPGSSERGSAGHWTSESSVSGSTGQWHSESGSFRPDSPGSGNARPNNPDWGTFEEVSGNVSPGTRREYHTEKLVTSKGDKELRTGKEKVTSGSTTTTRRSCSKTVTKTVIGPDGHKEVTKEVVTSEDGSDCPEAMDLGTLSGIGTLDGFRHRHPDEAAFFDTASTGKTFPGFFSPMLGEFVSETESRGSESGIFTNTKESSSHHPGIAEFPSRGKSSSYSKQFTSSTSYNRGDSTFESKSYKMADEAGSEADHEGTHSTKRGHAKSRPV
Experimental: as §1, §2

[3] = molecular target: T3, Recombinant truncated αC-fragment, NH2-terminal half (residues Aα221-391) (human, UniProt P02671 240-410)
T3 construct: probably the mature Aα chain
T3 sequence (looked up): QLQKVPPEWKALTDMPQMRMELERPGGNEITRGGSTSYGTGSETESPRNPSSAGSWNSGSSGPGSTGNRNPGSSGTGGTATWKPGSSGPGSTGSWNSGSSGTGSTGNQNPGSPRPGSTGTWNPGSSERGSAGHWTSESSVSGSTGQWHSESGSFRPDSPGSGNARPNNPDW
Experimental: as §1, §2

Measured: binding result

SDKPDMAEIEKFDKSKLKKTETQEKNPLPSKETIEQEKQAGES (peptide, UniProt P62328 2-44, looked up, not fully specified, mature; also called Tβ4) [Synthetic thymosin β4]
no binding: all assays above
